Experimental data: the nanobody polyreactivity screen of Harvey et al. (2022)

Experiment: yeast display, Sf9 membrane polyspecificity reagent, FACS + sequencing; frameworks hold sequencing errors
Procedure, shortened: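 Nanobodies from a synthetic yeast display library (Saccharomyces cerevisiae BJ5465), induced 36–48 hours with galactose, were stained 1 hour at 4 °C with 10% biotinylated, detergent-solubilized Sf9 membrane reagent, enriched on streptavidin microbeads, then FACS-sorted. Anti-HA (expression) and streptavidin (reagent binding) fluorescence set low and high (top ~1%) gates. Polyreactivity labels come from the gate of origin. Genes were colony-PCR amplified, MiSeq 2 × 250 sequenced and filtered by CDR length.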

Sequence	polyreactivity (PSR sort gate)
QVQLVESGGGLVQAGGSLRLSCAASGSTLVGYAMGWYRQAPGKERELVAAISSSGTSTYYADSVKGRFSISRDNAKNTVYLQMNSLKPEDTAVYYCSARQRGTYGYWGQGTQVTVSS	high polyreactivity
QVQLVESGGCLVQAGGSLRLSCDASGSTFPYYAMGWYRQAPGKERELVAAITLSGSSTYYTDSVKGRFTISRDNAKNTVYLQMNSLKPEDTAVYYCATRRVQWGYRYSYWRQGTQVTVSS	high polyreactivity
QVHLVESGGGLVQAGGSLRLSCAASGSIFSYYAMGWYRQAPGKERELVASITYSGGSTYYADSVKGRFTISRDNAKNTVYLQMNSLKPEDTAVYYCNTDWRTSVGYDYWGQGTQVTVSS	low polyreactivity
QVQHVESGGGLVQAGGSLRLSCAASGSTFPTYAMGWYRQAPGKERELVADITWSGGSTYYADSVKGRFTISRDNAKNTVYLQMNSLKPEDTAVYYCNAAHRKGMYYWGQGTQVTVSS	high polyreactivity
QVQLVESGGGLVEAGGSLRLSCAASGRTFSPNTMGWYRQAPGKEREFVAAITASGDSTYYADSVKGRFTISRDNAKNTVYLQMNSLKPEDTAVYYCATDSNWYWGFNYWGQGTQVTVSS	low polyreactivity
QVHLVESGGGLVQAGGSLRLSCAAYGRIFTLNAMGWDRQAPGKERGWVARISRTGGSTYYADSVKGRFTISRDNAKNTVYLQMNSLKPEDTAVYYCAAAGFSRQPGAGAYYYWGQCTQVTVSS	high polyreactivity
QVQLVESGGGLVQAGGSLRLSCAASGTFSFYALGWYRHAPGKERELVATIRSGGRTYYADSVKGRFTISRDTAKNTVYLQMNSLKPEDTAVYYCAKTGFLGLRQYGYWGQGTQVTVSS	high polyreactivity
QVQLVESGGGLVQAGGSLRISCAASGYIFAVYAMGWYRQAPGKEREFVAVITWRGGSTYYADSVKGRFTISRDNAKNTVYLQMNSLKPEDTAVYYCAARWHFLTSSRFDYWGQGTQVTVSS	high polyreactivity
QVHLVESGGGLVQAGGSLRLSSAASGSTFVFNAMAWYRQAPGKESELVAGISWSGGSTYYADSVKGRFTISRDNSKNTVYLQMKSLKPEDTAVYYCAVDGYFWGYYERDYSGQGTQVTVSS	low polyreactivity
QVQLVESGGGLVQAGGSLRLSCAASGRTFPYNAMGWYIQAPGKERELVAAISSGGSTNYADSVKGRFTISRDNAKNTVYLQMNSLKPEDTAVYYCAVTGWPRYTWYSYGYWGQGTQVTVSS	low polyreactivity
QVQLVESGGGLVQAGGSLRLSCAASGSIYVYYGMGWYRQAPGKERELVAAISSGGSTHYADSVKGRFTISRDNAKNTVYLQMNSLKPEDTAVYYCAADRFFWLRSYPRYYYWGQGTQVTVSS	low polyreactivity
QVPLVESGGGLVQAGGSLRLSCAASGSIFRNYALGWYRQAPGKERELVAGITQRGGRTYYADSVKGRFTSSRDNAKNTVYLQLNSLKPEDTAVYYCAASYRGVPEYDSWGQGTQVTVSS	high polyreactivity
QVQLVESGGGLVQAGGSLSLSSAASGPIFAYNAMGWYRQAPGKERELVAAISYSGGSTYYADSLKGRFTISRDNAKNTVYIQMNSLKPEDTAVYYCNAVYRYLTYRYDYWGQGTQVTVSS	high polyreactivity
QVQLVESGGGLVQAGGSLRLSCAASGRTSLRYSMGWYRQAPGKERELVAAITSSGATTYYADSVKGRFTISRDNAKNTVYLQMNSLKPEDTAVYYCAAVYSAKRGSGGFGYWGQGTQVTVSS	high polyreactivity
QVQLVESGGGLVQAGGSLRLSCASSGSIFVHNDMGWYRQAPGKERELVARINTGGGTNYADSVKGRFTISRDNSKNTVYLQMNRLKPEDRAVYYCAAVLFVFYDEYGYWEYFSQYDYWGQGTKVTVSS	low polyreactivity
QVQLVESGGGLVQAGGSLRLSCAASGSTFEWNAMGWYRQAPGKERELVAAISGTGGNTYYADSVKGRFTISRYNAKNTVYLQMNSLKPEDTAVYYCNTDYGEYSSWDLQWWYIPYDYWGQGTQVTVSS	low polyreactivity
QVHLVESGGGLVQAGGSLRLSSAASGSNFGLNAMGWSRQAPGKERELVAAITWSGGSSTYYADTVKGRLTISRDNAKNSVYLQMKSLKPEDTAVYYCAARRVFIPYYVRFYYWGQGTQVTVSS	high polyreactivity
QVQLVESGGGLVQAGGSLRLSCAPSARTFVYNAMGWYRQAPGKERELVAAIDGGGDRTYYADSVKGRFTISRDNAKYTVYIQMYSLKPEDTAVYYCARDPGDTYYYSYPEGDYWGQGTQVTVSS	low polyreactivity
QVQLVESGGGLVQAGGSLRLSCAASGSIFYYKYSMGWYRQAPGKERELVAAITSTGGTTYYADSVKGRFTISRDNAKNTVYLQMNSLKPEDTAVYYCAALAPYIGGVDYDYWGQGTQVTVSS	low polyreactivity
QVQLVESGGGLVQAGGSLRLSCAASGSIFRNYAMGWYRQAPGKERELVAAISRSGSSTFYADSVKGRFTISRDNAKNTVYLQMNSLKPEDTAVYYCAAVDYYTLTGYRYYWGQGTQVTVSS	high polyreactivity
QVQLVESVGGLVQAGGSLRLSSAASGRILGYYAMGWYRQAPGKERELVAAISRACSTNYADSVKGRFTISRDNAKNTVYLQMNSLKPEDTAVYYCAARPYRRGYNYWGQGSQVTVSS	high polyreactivity
QVQLVESGGGLVQAGGSLRLSCAASGITFYDNVMGWYRQAPGKERELVAAITSGGSTNYADSVKGRFTISRDNAKNTVYLQMNSLKPEDTAVYYCAAQPRVDYEFPYRYGYWGQGTQVTVSS	low polyreactivity

Sequence	polyreactivity (PSR sort gate)
QVQLVESGGGLVQAGGSLRLSCAASGSIFVWNAMGWYRQAPGKERELVAAITNIGGRTYYADSVKGRFTISRDNAKNTFYLQMNSLKPEDTAVYYCNVVVKGAWDYYPYDYWGQGTQVTVSS	high polyreactivity
QVQRVESGGGLVQAGGRLRLSFAAAGIIFKVNAMGWYRQAPGKERELVPAISWSGSSTYYADSVKGRFTISRDNAKNTVYLQMNSLKPEDTAVYYCGTRWFAVHMYWGQGTQVTVSS	high polyreactivity
QVQLVETGGGLVQAGGILRLSCAASGLTIIYYAMGWYRQSPGKERELVAAISGSVGSTYYADSVQGRFTISRDNAKNTVYLQMNSLKPEDTAVYYCNADRWGFGNVRKYDYWGQGTQVTVSS	low polyreactivity
QVQLVESGGGLVQAGGSLRLSCAASGRIFDLNAMGWYSQAPGKERELVAAITTNDGDTYYADSVKGRFTISRDTAKNTVYLQMNSLKPEDTAVYYCAAVSGSTSEYEYWGQGTEVTVSS	low polyreactivity
QVQLVESGGGLVQAGGSLRLSCAASGSTFTAYAMGWYRQAPGKERELVADISKRSGGTYYADSVKGRFTISRDNAKNTVYLQMNSLKPEDTAVYYCGQGTQVTVSS	low polyreactivity
QVQLVESGGGLVQAGGSLRLSCAASAFILDWNTIGWYRQAPRKEREFVAAITSRGGDTYYADSVKGRFTISRDNAKNTDYFQMNSMKPEDTAVYYWNKGFKLWPRYGYDYWGLGTQVTVSS	low polyreactivity
QVQLVESGGGLVQAGGSLRLSCAASGSTFPHNAMGWYRQAPGKERELVAAISVGGGSSHYADSVKGRFTISRDNAKNNVYLQMNSLKPEDTAVYYCAKDYAYQYSFVTYDYWGQGTQVTVSS	low polyreactivity
QVKLVESGGGLVQAGGSLRLSCGASGSIFRWYALGWYRQAPGKERELVAAIDYSGGSTYYADSVKGRFTISRDNAKNTVYLQMNSLKPEDTAVYYCAATAFYGGFLRYDYWGQGTQVTVSS	low polyreactivity
QVQLVESGGGLVQAGGSLRLSCAASGRTFAYYAMGWYRQAPGKERELVAAITLRSGSTYYADSVKGRFTISRDNAKNTVYLQMNSLKPEDTAVYYCATDSLGVDRPNYNYWGQGTQVTVSS	low polyreactivity
QVQLVESGGGLVQAGGSLRLSCAASGRIFKQYALGWYRQAPGKERELVAAISVRGGITYYADSVKGRFTISRDNAKNTVYLQMNSLKPEDTAVYYCAKRSYRTHTYDYWGQGTQVTVSS	low polyreactivity
QVQLVESGGGLVQAGGSLRLSCAASGLTFVKNVMGWYRQAPGKERELVAAISRRGGSTYYADSVKGRFTISRDNAKNTVYLQMNSLKPEDTAVYYCNAVLNQLSYIYPAVGYWGQGTQVTVSS	high polyreactivity
QVQHVESRGGLVQAGGSLRLSCAASGLIFALYAMGWYRLAHGKERELVAAIDWSGGSTYYADSVKGRFTISRDNAKNTVYLQMNCLKPEDTAVYYCAADISSSPGNDYWGQGTQVTVSS	high polyreactivity
QVQLVESGGGLVQAGGSLRLSCSASGSTFHRYAMGWYIQAPGKERELVARINGSGGSTYYADSVKGRFTISRDNAKNTVYLQMNSLKPEDSAVYYCAADGLYYTYGYDYWGQGTQVTVSS	low polyreactivity
QVQLVESGGGLVQAGGSLRLSCAASGSIFDVYAMGWYRQAPGKERELVAAIRTRGGSTYYADSVKGRFTISRDNAKNTVYLQMNSLKPEDTAVYYCAAYPLVSWGRHGTKGDYWGQGTQVTVSS	low polyreactivity
QVQLVESGGGLVQAGGSLRLSCAASGRTFPFNTMGWYRQAPGKERELVARISSGGSTYYADSVKGRFRISRDNAKNTVYLQMNSLKPEDTAVYYCATRYRYYSRLYDYWGQGTQVTVSS	high polyreactivity
QDQIVESGGGLVQAGGSLRLSCAASGSIFVIKAMGWYRQAPGKERELVASIRGRTGSTNYADSVKGRFTISRDNAKNTVYLQMNSLKPVDTAVYYGAADRKGPFDYWGLGTQVTVSS	high polyreactivity
QVQLVESGRGLVQAGGSLRLSCASSGFTLSPNAMRWYRPAPGKEREFVAAISQRGGSTYYADSVKGRFTISRDNAKNTVYLQMNSLKPEDTAVYYCARDTKYKYDFWGQGTQVTVSS	low polyreactivity
QVQLVESGGGLVQAGGSLRLSCAASGRTFSWYVMGLYRQAPGKERELVASISGSGGSTYYADSVKGRFTISRDNAKNTVYLQMNSLKPEDTAVYYCARDYFFRSRSDYWGQGTQVTVSS	high polyreactivity
QVQILESGVCLVQARGSLRLSCAASGRTFRSNAMGWYRQAPGKERDLVAAITSSGGRTYYADSVKGRFTISRDNAKNTVYLQMNILKPEDTAVYYCNAVLRQYYRAYDYWGQGTQGTVSS	high polyreactivity
QVQLVETGGGLVQAGGSLRLSCAASGIFTYTMGWYRQAPRKERELVAAITNGSTYDADSVKGRFTISRDNAKNTVYLQMNSLKPEDTEVYYCAADRSSAYRWRSAGYYKYDYWGQGTHVTVSS	low polyreactivity
QVQLVESAGGLVQAGGSLRLSCAASGNTFDPNAMGWYRQAPGKEREFVAAISTIGSSTYYADSVKGRFTISRDNAKYTVYLQMNSLNPEVTAVYYCAKGIYVVYGIDDYWGQGTQVTLSS	low polyreactivity
